Our source for the S/N ratio values is paper PMC12628836, “Lactobacillus rhamnosus YQ001 binds with GII.4 human noroviruses and inhibits viral replication in zebrafish larvae” (Applied and Environmental Microbiology, 2025).

The target in this assay is recombinant C2JX39 (DNA topoisomerase 4 subunit A) (Lactobacillus rhamnosus YQ001). Briefly: ELISA; attachment factors coated at 280.0 pmol/mL in carbonate-bicarbonate buffer overnight at 4 C, blocked with 1.0% BSA; P protein (GI.1 or GII.4) 10.0 ug/mL, 1 h at 37 C; detected with anti-HuNoV monoclonal antibodies; positive when S/N >= 2.0. To be noted: both partners purified.

B1: GII.4 HuNoV P protein (domain or fragment)
chain: KPFTVPILTVEEMTNSRFPIPLEKLFTGPSGAFVVQPQNGRCTTDGVLLGTTQLSPVNICTFRGDVTHIAGSRNYTMNLASLNWNNYDPTEEIPAPLGTPDFVGKIQGLLTQTTKGDGSTRGHKATVYTGSAPFTPKLGSVQFSTDTENDFETHQNTKFTPVGVIQDGSTTHRNEPQQWVLPSYSGRNVHNVHLAPAVAPTFPGEQLLFFRSTMPGCSGYPNMDLDCLLPQEWVQHFYQEAAPAQSDVALLRFVNPDTGRVLFECKLHKSGYVTVAHTGQHDLVIPPNGYFRFDSWVNQFYTLAPM
As to B1, the S/N ratio was found to be 16.9.
